Measurements: article PMC10980799, “The transcription of the main gene associated with Treacher–Collins syndrome (TCOF1) is regulated by G-quadruplexes and cellular nucleic acid binding protein (CNBP)”

What was measured:
CNBP [1] = target: T1, CNBP (Homo sapiens, UniProt P62633 1-177); experiment: EMSA; 100 mM K+; apparent Kd, SEM, n=3; EMSA: 20 mM HEPES pH 8.0, 10 mM MgCl2, 1 mM EDTA, 0.5 ug/ul heparin, 1 mM DTT, 1 ug/ul BSA, 10% glycerol, 100 mM KCl or LiCl, probe 0.75 uM, 30 min at 37 C; CNBP diluted in 50 mM Tris-HCl pH 7.5, 300 mM NaCl, 1 mM DTT, 5 mM imidazole, 0.1 mM ZnCl2; details: protein: recombinant, tags: tag-free (from pET-32a-TEV-CNBP, tag removed), label: none (SYBR Gold stain)
CNBP [2] = target: T1, CNBP; experiment: EMSA; 100 mM Li+; apparent Kd, SEM, n=3; EMSA: 20 mM HEPES pH 8.0, 10 mM MgCl2, 1 mM EDTA, 0.5 ug/ul heparin, 1 mM DTT, 1 ug/ul BSA, 10% glycerol, 100 mM KCl or LiCl, probe 0.75 uM, 30 min at 37 C; CNBP diluted in 50 mM Tris-HCl pH 7.5, 300 mM NaCl, 1 mM DTT, 5 mM imidazole, 0.1 mM ZnCl2; details: protein: recombinant; tags: tag-free (from pET-32a-TEV-CNBP, tag removed); label: none (SYBR Gold stain); single strand, unfolded

T1 sequence (P62633 whole entry): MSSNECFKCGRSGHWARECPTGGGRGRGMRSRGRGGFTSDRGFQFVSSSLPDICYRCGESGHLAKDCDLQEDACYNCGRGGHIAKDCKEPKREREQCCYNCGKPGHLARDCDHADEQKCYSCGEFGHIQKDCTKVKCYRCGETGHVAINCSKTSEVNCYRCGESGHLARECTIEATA

TGGGGTGGGGTGAGGTGGGGAAGAGGGAAC (structured_DNA) [Hs791 folded as G4 (K+)] showed a Kd (CNBP [1]; parallel G4) of 271 ± 70 nM.

GTGTATGTGGGGGGGGGGGGCGGGTGGTAG (ssDNA) [Hs2160 unfolded (Li+)] was tested, and the Kd (CNBP [2]) was 287 ± 100 nM.

With TGGGGTGGGGTGAGGTGGGGAAGAGGGAAC (ssDNA) [Hs791 unfolded (Li+)] the Kd (CNBP [2]) was 199 ± 55 nM.

In the case of TGCTGGTGGTCATGGGGGAGTGGAGAGCAT (ssDNA) [Dr2393 unfolded (Li+)], the Kd (CNBP [2]) is reported as 257 ± 70 nM.

Binder GTGTATGTGGGGGGGGGGGGCGGGTGGTAG (structured_DNA) [Hs2160 folded as G4 (K+)] has a Kd (CNBP [1]; parallel G4) of 431 ± 120 nM.

TGCTGGTGGTCATGGGGGAGTGGAGAGCAT (structured_DNA) [Dr2393 folded as G4 (K+)] was tested, and the Kd (CNBP [1]; G4) was 331 ± 80 nM.
